B1: IADNPQLSFY (peptide)
peptide: IADNPQLSFY
B2: STALSILLL (peptide)
peptide: STALSILLL
B3: PVHDSVGVTY (peptide)
peptide: PVHDSVGVTY
B4: NSDISIPEY (peptide)
peptide: NSDISIPEY
B5: NSNLKFLEV (peptide)
peptide: NSNLKFLEV
B6: ITDTLIHL (peptide)
peptide: ITDTLIHL
B7: PIMSSSQALY (peptide)
peptide: PIMSSSQALY
B8: ASDHWRGRY (peptide)
peptide: ASDHWRGRY
B9: LTWAHSAKY (peptide)
peptide: LTWAHSAKY
B10: ISEAPLTEV (peptide)
peptide: ISEAPLTEV
B11: EVTDRNMLAF (peptide)
peptide: EVTDRNMLAF
B12: SIEVFTHY (peptide)
peptide: SIEVFTHY
B13: VSERTGISY (peptide)
peptide: VSERTGISY
B14: HVSGQMLYF (peptide)
peptide: HVSGQMLYF
B15: LSDAVHVEF (peptide)
peptide: LSDAVHVEF
B16: EVVEGKEWGSFY (peptide)
peptide: EVVEGKEWGSFY
B17: LLKAKDILY (peptide)
peptide: LLKAKDILY
B18: ISEDKSISF (peptide)
peptide: ISEDKSISF
B19: EAAPDIMHY (peptide)
peptide: EAAPDIMHY
B20: TTDPKKFQY (peptide)
peptide: TTDPKKFQY
B21: GTKQWVHARY (peptide)
peptide: GTKQWVHARY
B22: YLEDRPLSQ (peptide)
peptide: YLEDRPLSQ
B23: SAPSSSGSPLY (peptide)
peptide: SAPSSSGSPLY
B24: VPFNLITEY (peptide)
peptide: VPFNLITEY
B25: STIDFRAGF (peptide)
peptide: STIDFRAGF
B26: RTIEGDFLW (peptide)
peptide: RTIEGDFLW
B27: NEIDIHSIYFY (peptide)
peptide: NEIDIHSIYFY
B28: ITDTLIHLM (peptide)
peptide: ITDTLIHLM
B29: IGDKVDAVY (peptide)
peptide: IGDKVDAVY
B30: AVAAAAGASLY (peptide)
peptide: AVAAAAGASLY
B31: YIGLKGLYF (peptide)
peptide: YIGLKGLYF
B32: YTEFVDATFTK (peptide)
peptide: YTEFVDATFTK
B33: EVLGEEMYAY (peptide)
peptide: EVLGEEMYAY
B34: RTHIGYKVY (peptide)
peptide: RTHIGYKVY
B35: GLIEVVTGY (peptide)
peptide: GLIEVVTGY
B36: QSEKEPGQQY (peptide)
peptide: QSEKEPGQQY
B37: IPVHDSVGVTY (peptide)
peptide: IPVHDSVGVTY
B38: TPIPFDKILY (peptide)
peptide: TPIPFDKILY
B39: TLDSTRTLY (peptide)
peptide: TLDSTRTLY
B40: LCATVCGTEQY (peptide)
peptide: LCATVCGTEQY
B41: SADEAHGLL (peptide)
peptide: SADEAHGLL
B42: HSIEVFTHY (peptide)
peptide: HSIEVFTHY
B43: NTHTGTRPY (peptide)
peptide: NTHTGTRPY
B44: ITDVGPGNY (peptide)
peptide: ITDVGPGNY
B45: KASSVSAEDGY (peptide)
peptide: KASSVSAEDGY
B46: KIRAEVLSHY (peptide)
peptide: KIRAEVLSHY
B47: FLKVTGYDKDDY (peptide)
peptide: FLKVTGYDKDDY
B48: RSDIGEFEW (peptide)
peptide: RSDIGEFEW
B49: YTDFVGEGLY (peptide)
peptide: YTDFVGEGLY
B50: YLDSSKPAVY (peptide)
peptide: YLDSSKPAVY
B51: VVFDKSDLAKY (peptide)
peptide: VVFDKSDLAKY
B52: HTMEVTVY (peptide)
peptide: HTMEVTVY
B53: TFDKQIVLL (peptide)
peptide: TFDKQIVLL
B54: AQVQDTGRY (peptide)
peptide: AQVQDTGRY
B55: RRLNFSGFGY (peptide)
peptide: RRLNFSGFGY
B56: FTTLSDLQTNMA (peptide)
peptide: FTTLSDLQTNMA
B57: YEVDTKLLSL (peptide)
peptide: YEVDTKLLSL
B58: EAYLERIGY (peptide)
peptide: EAYLERIGY
B59: ASCRSSAEY (peptide)
peptide: ASCRSSAEY
B60: SPAKQFNIY (peptide)
peptide: SPAKQFNIY
B61: TTENSGNYY (peptide)
peptide: TTENSGNYY
B62: TVFDENLSRY (peptide)
peptide: TVFDENLSRY
B63: LEDGIEQSAY (peptide)
peptide: LEDGIEQSAY
B64: RQAPGPARDY (peptide)
peptide: RQAPGPARDY
B65: IEKFAVLY (peptide)
peptide: IEKFAVLY
B66: FQYELRELY (peptide)
peptide: FQYELRELY
B67: DAVAPGREY (peptide)
peptide: DAVAPGREY
B68: SQHIFTVSY (peptide)
peptide: SQHIFTVSY

Each binder was assayed against T1, HLA-A*01:01 (human) (assay: UV-ligand exchange, anti-b2m ELISA).
T1 construct: MHC class I monomer first loaded with a UV-sensitive peptide (not identified) that is cleaved by UV irradiation and exchanged for the tested peptide; captured on streptavidin plates, detected with anti-β2m; also called peptide-receptive MHC molecules
Text: Candidate peptides for T cell based therapies according to the present invention were further tested for their MHC binding capacity (affinity). The individual peptide-MHC complexes were produced by UV-ligand exchange, where a UV-sensitive peptide is cleaved upon UV-irradiation and exchanged with the peptide of interest as analyzed. Only peptide candidates that can effectively bind and stabilize the peptide-receptive MHC molecules prevent dissociation of the MHC complexes. To determine the yield of the exchange reaction, an ELISA was performed based on the detection of the light chain (β2m) of stabilized MHC complexes. The assay was performed as generally described in Rodenko et al. (Rodenko et al., 2006)
96 well MAXISorp plates (NUNC) were coated over night with 2 ug/ml streptavidin in PBS at room temperature, washed 4× and blocked for 1 h at 37° C. in 2% BSA containing blocking buffer. Refolded HLA-A*02:01/MLA-001 monomers served as standards, covering the range of 15-500 ng/ml. Peptide-MHC monomers of the UV-exchange reaction were diluted 100-fold in blocking buffer. Samples were incubated for 1 h at 37° C., washed four times, incubated with 2 ug/ml HRP conjugated anti-β2m for 1 h at 37° C., washed again and detected with TMB solution that is stopped with […]. Absorption was measured at 450 nm.

First: B1
Second: B2
The peptide exchange yield of the first is higher: > 75% for the first, 20 to 50% for the second.

First: B3
Second: B4
The peptide exchange yield of the first is lower: 20 to 50% for the first, 50 to 75% for the second.

B5 and B6 fall in the same range of peptide exchange yield: 20 to 50% for the first, 20 to 50% for the second.

First: B7
Second: B8
The peptide exchange yield of the first is lower: 20 to 50% for the first, 50 to 75% for the second.

Compared with B9, B10 is lower in peptide exchange yield: 50 to 75% for the first, 20 to 50% for the second.

B11 and B12 fall in the same range of peptide exchange yield: 50 to 75% for the first, 50 to 75% for the second.

First: B13
Second: B14
The peptide exchange yield of the first is higher: 50 to 75% for the first, 20 to 50% for the second.

B15 and B16 fall in the same range of peptide exchange yield: 50 to 75% for the first, 50 to 75% for the second.

B17 and B18 fall in the same range of peptide exchange yield: 20 to 50% for the first, 20 to 50% for the second.

First: B19
Second: B20
The peptide exchange yield of the first is lower: 20 to 50% for the first, > 75% for the second.

First: B21
Second: B22
The peptide exchange yield of the first is lower: 10 to 20% for the first, 20 to 50% for the second.

First: B23
Second: B24
The peptide exchange yield of the first is higher: 20 to 50% for the first, 10 to 20% for the second.

B25 and B26 fall in the same range of peptide exchange yield: 20 to 50% for the first, 20 to 50% for the second.

Compared with B27, B28 is higher in peptide exchange yield: 20 to 50% for the first, 50 to 75% for the second.

B29 and B30 fall in the same range of peptide exchange yield: 20 to 50% for the first, 20 to 50% for the second.

Compared with B31, B32 is higher in peptide exchange yield: 20 to 50% for the first, > 75% for the second.

Compared with B33, B34 is higher in peptide exchange yield: 20 to 50% for the first, 50 to 75% for the second.

First: B35
Second: B36
The peptide exchange yield of the first is higher: > 75% for the first, 50 to 75% for the second.

Compared with B37, B38 is lower in peptide exchange yield: 50 to 75% for the first, 20 to 50% for the second.

Compared with B39, B40 is lower in peptide exchange yield: > 75% for the first, 20 to 50% for the second.

B41 and B42 fall in the same range of peptide exchange yield: 20 to 50% for the first, 20 to 50% for the second.

Compared with B43, B44 is higher in peptide exchange yield: 20 to 50% for the first, 50 to 75% for the second.

B45 and B46 fall in the same range of peptide exchange yield: 20 to 50% for the first, 20 to 50% for the second.

B47 and B48 fall in the same range of peptide exchange yield: 20 to 50% for the first, 20 to 50% for the second.

B49 and B50 fall in the same range of peptide exchange yield: 50 to 75% for the first, 50 to 75% for the second.

First: B51
Second: B52
The peptide exchange yield of the first is lower: 20 to 50% for the first, 50 to 75% for the second.

First: B53
Second: B54
The peptide exchange yield of the first is lower: 20 to 50% for the first, 50 to 75% for the second.

First: B55
Second: B56
The peptide exchange yield of the first is higher: 50 to 75% for the first, 20 to 50% for the second.

First: B57
Second: B58
The peptide exchange yield of the first is lower: 20 to 50% for the first, 50 to 75% for the second.

Compared with B59, B60 is lower in peptide exchange yield: > 75% for the first, 50 to 75% for the second.

First: B61
Second: B62
The peptide exchange yield of the first is higher: > 75% for the first, 20 to 50% for the second.

B63 and B64 fall in the same range of peptide exchange yield: 20 to 50% for the first, 20 to 50% for the second.

First: B65
Second: B66
The peptide exchange yield of the first is lower: 50 to 75% for the first, > 75% for the second.

B67 and B68 fall in the same range of peptide exchange yield: 20 to 50% for the first, 20 to 50% for the second.
